Residue numbers refer to the chain shown, from its start. In names and notes the source's numbering stands.

Among the data in publication PMC9606039 (2022) are Kd values, retold here.

The labels stand for the following.
B1: LY-CoV1404 Fab (Fab, V domains shown)
VH: QITLKESGPTLVKPTQTLTLTCTFSGFSLSISGVGVGWLRQPPGKALEWLALIYWDDDKRYSPSLKSRLTISKDTSKNQVVLKMTNIDPVDTATYYCAHHSISTIFDHWGQGTLVTVSS
VL: QSALTQPASVSGSPGQSITISCTATSSDVGDYNYVSWYQQHPGKAPKLMIFEVSDRPSGISNRFSGSKSGNTASLTISGLQAEDEADYYCSSYTTSSAVFGGGTKLTVL
B2: 2-7 D54N Fab (Fab, V domains shown)
VH: B1 VH with I31T, L39I, D56N, S72T, K83T, I87M, S101K, S103E, T104R, H108Y
VL: B1 VL with T5A, A24G, D31A, F51Y, E52D, D55K, I60V, A98T
B3: 2-7 Fab (Fab, V domains shown)
VH: B1 VH with I31T, L39I, S72T, K83T, I87M, S101K, S103E, T104R, H108Y
VL: B1 VL with T5A, A24G, D31A, F51Y, E52D, D55K, I60V, A98T

This experiment deals with receptor-binding domain (RBD) (residues 319-541) of the SARS-CoV-2 spike (S) protein (SARS-CoV-2, UniProt P0DTC2 319-541). Briefly: BLI.
Regarding B1, the equilibrium dissociation constant (Kd) (in general, the constant that tells how readily two partners part at equilibrium) was found to be 1.6 nM.
Turning to B2, the dissociation constant Kd is greater than 5000 nM.
For the molecule B3, the Kd is 38 nM.
